Measured values taken from PMC11617691, “‘GGFGGQ’ repeats in Hfq of Acinetobacter baumannii are essential for nutrient utilization and virulence”.

Experiments:
Hfq66 = biological target: T1, Hfq66 (Acinetobacter baumannii, UniProt V5VC31 1-66); test: fluorescence anisotropy; higher affinity (lower Kd) than WT; Kd printed only in figure; TNK buffer: 10 mM Tris-HCl pH 7.5, 50 mM NaCl, 50 mM KCl; 50 nM D16-FAM; 30 °C; 100 µl; details: protein: recombinant; tags: none (tag-free); chain copies: 6; label: 5'-FAM
T1 sequence: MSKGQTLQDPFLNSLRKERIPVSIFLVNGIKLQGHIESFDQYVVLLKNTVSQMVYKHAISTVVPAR

Hfq WT = biological target: T2, Hfq WT (Acinetobacter baumannii, UniProt V5VC31 1-168); test: fluorescence anisotropy; Kd printed only in figure; TNK buffer: 10 mM Tris-HCl pH 7.5, 50 mM NaCl, 50 mM KCl; 50 nM D16-FAM; 30 °C; 100 µl; details: protein: recombinant; tags: none (tag-free, stop codon in pET-28); chain copies: 6; label: 5'-FAM
T2 sequence: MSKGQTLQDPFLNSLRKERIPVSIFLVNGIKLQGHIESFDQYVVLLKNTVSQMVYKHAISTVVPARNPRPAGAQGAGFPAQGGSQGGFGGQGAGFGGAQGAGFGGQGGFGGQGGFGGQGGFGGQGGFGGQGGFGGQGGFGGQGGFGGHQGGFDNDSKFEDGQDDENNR

Binder: CGAAUUUUUUAAGUGC (ssRNA) [D16-FAM]
- binding result (Hfq66): binds
- binding result (Hfq WT): binds
